Experimental data taken from patent publication US7759464.

Experiments:
[1] = molecular target: monoclonal anti-idiotypic antibody MMA383; test: sandwich ELISA on wells coated with anti-idiotypic antibody MMA383, detected with anti-human IgG+A+M peroxidase
[2] = molecular target: monoclonal anti-idiotypic antibody MMA383; test: sandwich ELISA on wells coated with anti-idiotypic antibody MMA383; evaluated at EC50, normalized on IGN311 wt.

Binder	Bottom (four parameter sigmoid fit) [1]	EC50 [1] [µg/mL]	Log EC50 [1]	Top (four parameter sigmoid fit) [1]	% (binding activity normalized on IGN311 wt.) [2] [%]
IGN311 wt. (antibody, V domains shown) VH: EVQLLESGGGLVQPGGSLRLSCAASGFTFSDYYMYWVRQAPEKRLEWVAYISNGGGSSHYVDSVKGRFTISRDNSKNTLYLQMNSLRAEDTALYHCARGMDYGAWFAYWGQGTLVTVSS VL: DIVMTQSPLSLPVTPGEPASISCRSSQSIVHSNGNTYLEWYLQKPGQSPQLLISKVSNRFSGVPDRFSGSGSGTDFTLKISRVEAEDVGVYYCFQGSHVPFTFGQGTKLEIK	96.1	0.0638	1.8 log(ng/ml)	2060	100
IGN312 Glyco I (antibody, V domains shown, bi-sected hybrid type N-glycosylation pattern in the Fc region (constant part of the heavy chain, not in this VH piece)) VH: EVQLLESGGGLVQPGGSLRLSCAASGFTFSDYYMYWVRQAPEKRLEWVAYISNGGGSSHYVDSVKGRFTISRDNSKNTLYLQMNSLRAEDTALYHCARGMDYGAWFAYWGQGTLVTVSS VL: DIVMTQSPLSLPVTPGEPASISCRSSQSIVHSNGNTYLEWYLQKPGQSPQLLISKVSNRFSGVPDRFSGSGSGTDFTLKISRVEAEDVGVYYCFQGSHVPFTFGQGTKLEIK	77	0.0688	1.84 log(ng/ml)	2100	108
